From patent US20260098102A1 (NATIONAL UNIVERSITY CORPORATION KOBE UNIVERSITY, published 2026)
Read-outs that look alike come from different tables or passages of the source.

T1: monkey SIRPA protein (cynomolgus monkey, UniProt P78324 31-504 (human entry))
T1 construct: Expressed on 293α cells from pcDNA3.2 V5-DEST or pFLAG V5-DEST vectors; also called cynomolgus monkey SIRPA; cSIRPA
T1 chain: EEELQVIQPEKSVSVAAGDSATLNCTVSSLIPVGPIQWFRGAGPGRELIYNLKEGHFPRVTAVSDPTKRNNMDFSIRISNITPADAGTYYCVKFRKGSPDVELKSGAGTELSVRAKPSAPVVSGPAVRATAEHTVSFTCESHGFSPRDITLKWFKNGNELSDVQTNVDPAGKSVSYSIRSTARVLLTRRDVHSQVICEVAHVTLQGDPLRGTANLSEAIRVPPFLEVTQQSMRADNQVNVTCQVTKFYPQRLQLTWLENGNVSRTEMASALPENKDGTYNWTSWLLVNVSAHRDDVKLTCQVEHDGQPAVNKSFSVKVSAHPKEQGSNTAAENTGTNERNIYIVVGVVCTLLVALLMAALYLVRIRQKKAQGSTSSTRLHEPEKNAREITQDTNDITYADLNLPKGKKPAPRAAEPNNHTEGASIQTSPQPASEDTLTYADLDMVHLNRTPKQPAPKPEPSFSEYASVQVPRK

B1: human chimeric anti-SIRPA antibody cF44 (antibody, human IgG4 S228P, kappa, F234A L235A, V domains shown)
VH: EVQLVESGGGLVQPGRSLKLSCAASGFTFSNYYMAWVRQAPTKGLEWVTYITTGGGSTYFRDSVKGRFTISRDNAESTLYLQMDSLRSEDTATYYCTAANYGGSYFDYWGQGVMVTVSS
VL: DVQMTQSPSNLAASPGESVSINCKASKSISKYLAWYQQKPGKANKLLIYSGSTLQSGTPSRFSGSGSGTDFTLTIRNLEPEDFGLYYCQQHNEYPPTFGAGTKLELKR
notes: Human IgG4proFALA heavy chain, human kappa light chain; also called cF44 (IgG4pf); human chimeric antibody F44
B2: human chimeric anti-SIRPA antibody cF63 (antibody, human IgG4 S228P, lambda, F234A L235A, V domains shown)
VH: QVQLKESGPGLVQPSETLSLTCTVSGFSLASYSLSWVRQPSGKGPEWMGRMYYDGDTAYNSALKSRLSISRDTSKNQVFLKMNSLQTDDTGTYYCTRDRSMFGTDYPHWYFDFWGPGTMVTVSS
VL: QFTLTQPKSVSGALRSTITIPCERSSGDIGDSYVSWYQRHLGRPPINVIYADDQRPSEVSDRFSGSIDSSSNSASLTITNLQMDDEADYFCQSYDSKIDIFGGGTKLTVLG
notes: Human IgG4proFALA heavy chain, human lambda light chain; also called cF63 (IgG4pf); human chimeric antibody F63

Assays:
[1] = molecular target: T2, SIRPA_V1_IgV (human, UniProt P78324 31-149); test: SPR Biacore T200, antibody captured, SIRPA_V1_IgV as analyte, 1:1 model
T2 construct: Secreted recombinant protein from FreeStyle 293F cells
T2 sequence (P78324 other isoform, or with tags, fused parts or gaps limits assumed): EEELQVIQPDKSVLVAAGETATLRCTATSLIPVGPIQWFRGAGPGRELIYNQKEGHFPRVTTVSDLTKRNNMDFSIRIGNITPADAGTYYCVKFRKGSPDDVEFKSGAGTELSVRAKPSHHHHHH
Experimental: The dissociation constants of the cD13, cF44, and cF63 prepared in Example 4 against the human SIRPA_V1_IgV prepared in Example 1 were determined by a capture method comprising capturing a human chimeric antibody as a ligand and measuring an antigen as an analyte, using Biacore T200 (GE Healthcare Bioscience Corp.). HBS-EP+ (GE Healthcare Bioscience Corp.) was used as a running buffer, and CM5 (GE Healthcare Bioscience Corp.) was used as a sensor chip. In an amount of 1 μg/mL human chimeric antibody was added onto a chip at a rate of 10 μL/min for 60 seconds, a serially diluted solution of human SIRPA protein as an antigen (0.5 to 8 μg/mL) was added at a flow rate of 30 μL/min for 120 seconds, and the dissociation phase continued to be monitored for 600 seconds. As a regenerant, 3 M magnesium chloride (GE Healthcare Bioscience Corp.) was added at a flow rate of 20 μL/min for 30 seconds. For data analysis, the binding rate constant (ka), dissociation rate constant (kd), and dissociation constant (KD; KD=kd/ka) were calculated using a 1:1 binding model.

[2] = molecular target: T3, human SIRPA_V1 protein (human, UniProt P78324 31-504); test: cell-based ELISA on 293α cells expressing FLAG-tagged SIRPA_V1; Abs 490 normalized to FLAG tag
T3 construct: Expressed on 293α cells from pcDNA3.2 V5-DEST or pFLAG V5-DEST (FLAG-tagged) vectors; also called human SIRPA Variant 1; hSIRPA V1
Experimental: (§1) The 293α cells [described in Example 1)-6] were prepared in a 10% FBS-containing DMEM medium to 5×10⁵ cells/mL. pFLAG V5-DEST-SIRPA_V1, pFLAG V5-DEST-SIRPA_V2, or pFLAG V5-DEST was introduced into the cells using Lipofectamine LTX (Invitrogen), followed by addition of 100 μL per well to a 96-well plate (Corning Incorporated), and cells were cultured overnight in the 10% FBS-containing DMEM medium at 37° C. under a 5% CO₂ condition. The obtained introduced cells were used for cell-based ELISA in a state that they adhered to each other. After the culture supernatant was removed, 50 μL per well of the cD13 (IgG2 and IgG4pf), cF44 (IgG1, IgG2, IgG4p, and IgG4pf), and cF63 (IgG2 and IgG4pf) antibodies prepared in Examples 3 and 4 were added to each of pFLAG V5-DEST-SIRPA_V1, pFLAG V5-DEST-SIRPA_V2, or pFLAG V5-DEST-introduced cells at final concentrations of 0 to 10,000 ng/mL, and the mixture was allowed to stand at 4° C. for one hour. Further, 50 μL per well of anti-FLAG M2 antibody (SIGMA) diluted with 5% FBS-containing PBS to a final concentration of 10,000 ng/mL was added to a well for detecting expression of each SIRPA construct, and the mixture was allowed to stand at 4° C. for one hour. The cells in the well were washed once with 5% FBS-containing PBS, followed by addition of Peroxidase AffiniPure F(ab′)₂ Fragment Goat Anti-Human IgG, Fcγ Fragment Specific (Jackson ImmunoResearch) diluted 1000-fold with 5% FBS-containing PBS, and the mixture was allowed to stand at 4° C. for one hour. The cells in the well were washed five times with 5% FBS-containing PBS, followed by addition of 100 μL per well of an OPD coloration solution [o-phenylenediamine dihydrochloride (Wako Pure Chemical Industries, Ltd.) and H₂O₂ were dissolved in an OPD solution (0.05 M trisodium citrate, 0.1 M disodium hydrogen phosphate dodecahydrate, pH 4.5) at 0.4 mg/mL and 0.6% (v/v), respectively]. A coloration reaction was performed with stirring occasionally, 100 μL per well of 1 M HCl was added to terminate the coloration reaction, and then absorbance at 490 nm was measured with a plate reader ARVO (PerkinElmer Inc.). Binding of the human chimeric anti-human SIRPA antibodies to each construct was standardized by expression of the FLAG tag.
Target sequence in this assay (P78324 31-504 limits assumed): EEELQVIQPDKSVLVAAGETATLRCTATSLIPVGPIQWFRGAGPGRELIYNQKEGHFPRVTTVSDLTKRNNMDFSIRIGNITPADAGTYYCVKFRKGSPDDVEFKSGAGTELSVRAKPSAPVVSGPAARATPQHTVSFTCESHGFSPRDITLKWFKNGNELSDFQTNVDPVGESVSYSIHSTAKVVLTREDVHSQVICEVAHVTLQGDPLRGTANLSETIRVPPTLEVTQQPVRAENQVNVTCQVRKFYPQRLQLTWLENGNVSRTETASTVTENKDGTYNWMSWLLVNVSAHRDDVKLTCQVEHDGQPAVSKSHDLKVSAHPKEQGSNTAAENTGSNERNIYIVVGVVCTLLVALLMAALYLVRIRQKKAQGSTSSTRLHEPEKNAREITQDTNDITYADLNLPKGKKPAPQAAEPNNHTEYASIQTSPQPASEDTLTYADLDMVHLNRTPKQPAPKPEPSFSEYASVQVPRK

[3] = molecular target: T4, human SIRPA_V2 protein (human, UniProt P78324 31-504); test: cell-based ELISA on 293α cells expressing FLAG-tagged SIRPA_V2; Abs 490 normalized to FLAG tag
T4 construct: Expressed on 293α cells from pcDNA3.2 V5-DEST or pFLAG V5-DEST (FLAG-tagged) vectors; also called human SIRPA Variant 2; ECD variant (full-length, amino acids 1 to 504)
Experimental: as §1
Target sequence in this assay (P78324 other isoform, or with tags, fused parts or gaps limits assumed): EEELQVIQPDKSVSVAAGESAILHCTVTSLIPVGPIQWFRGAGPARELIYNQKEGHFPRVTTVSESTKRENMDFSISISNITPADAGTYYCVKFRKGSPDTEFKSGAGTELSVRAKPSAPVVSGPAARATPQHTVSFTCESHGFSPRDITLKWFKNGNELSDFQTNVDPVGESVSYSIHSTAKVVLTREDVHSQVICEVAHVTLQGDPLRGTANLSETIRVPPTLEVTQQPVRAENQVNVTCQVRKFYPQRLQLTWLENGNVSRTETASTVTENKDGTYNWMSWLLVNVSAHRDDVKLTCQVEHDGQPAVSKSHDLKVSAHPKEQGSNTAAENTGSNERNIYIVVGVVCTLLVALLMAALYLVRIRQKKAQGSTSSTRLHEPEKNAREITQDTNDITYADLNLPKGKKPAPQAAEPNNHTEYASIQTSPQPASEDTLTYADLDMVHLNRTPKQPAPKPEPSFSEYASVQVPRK

[4] = molecular target: T1, monkey SIRPA protein; test: cell-based ELISA on 293α cells expressing FLAG-tagged monkey SIRPA; Abs 490 normalized to FLAG tag
[5] = molecular target: T3, human SIRPA_V1 protein; test: blocking cell-based ELISA: peroxidase-labeled CD47-Fc (10,000 ng/mL) on 293α cells expressing SIRPA_V1; y axis = CD47-Fc signal in % of no antibody [i]
Experimental: (§2) After the culture supernatant of the human SIRPA and monkey SIRPA expression vector-introduced 293α cells prepared in Examples 5)-1 and 5)-2, respectively, was removed, 50 μL per well of cD13 (IgG2 and IgG4pf), cF44 (four different constant regions IgG1, IgG2, IgG4p, and IgG4pf), and cF63 (IgG2 and IgG4pf) diluted with 5% FBS-containing PBS to final concentrations of 0 to 10,000 ng/mL were added to each of pcDNA3.2 V5-DEST-SIRPA_V1, pcDNA3.2 V5-DEST-monkey SIRPA, and pcDNA3.2 V5-DEST-introduced 293α cells, immediately followed by addition of 50 μL per well of peroxidase-labeled CD47-Fc prepared in 5% FBS-containing PBS at a final concentration of 10,000 ng/ml, and the mixture was allowed to stand at 4° C. for one hour. Thereafter, the SIRPA-CD47 binding inhibitory activity was evaluated in the same manner as in 1)-6-3.

[6] = molecular target: T3, human SIRPA_V1 protein; test: as above; remark: listed apart in the source
Experimental: as §2
Target sequence in this assay (P78324 31-504 limits assumed): as the sequence (P78324 31-504 limits assumed) above

[7] = molecular target: T4, human SIRPA_V2 protein; test: blocking cell-based ELISA: peroxidase-labeled CD47-Fc (10,000 ng/mL) on 293α cells expressing SIRPA_V2; y axis = CD47-Fc signal in % of no antibody [ii]
[8] = molecular target: T4, human SIRPA_V2 protein; test: as above; remark: listed apart in the source

Binder	Kd [1] [nM]	EC50 (read off the curve) [2] [ng/mL]	EC50 (read off the curve) [3] [ng/mL]	EC50 (read off the curve) [4] [ng/mL]	IC50 (read off the curve) [5] [ng/mL]	IC50 (read off the curve) [6] [ng/mL]	IC50 (read off the curve) [7] [ng/mL]	IC50 (read off the curve) [8] [ng/mL]
B1	1.72	~50	~50	~80	~600	~600	~400	~400
B2	0.166	~50		~90	~100		~200	
